Target: SpyDock (SpyCatcher2.1 S49C E77A), carbamidomethylated
Assay: ITC; 20 μM carbamidomethylated SpyDock in the cell, 20 injections of 210 μM SpyTag-MBP or SpyTag002-MBP from the syringe; 25 °C; 20 mM HEPES pH 7.0, 150 mM NaCl; 1:1 binding model

Substance	Kd	stoichiometry N
SpyTag002-MBP	73 nM	1
SpyTag-MBP	750 nM	1

Source: PMC6465384
